Results published in publication PMC5647543, “The Two-State Prehensile Tail of the Antibacterial Toxin Colicin N” (Biophysical Journal, 2017).

Target: T1, ColN_(90–387) (ColN-RP), receptor binding and pore forming domains of colicin N (Escherichia coli, UniProt P08083 90-387)
T1 construct: In PDB 1A87 the first resolved residue is S91; source: purified as previously described (20, 26); 15N-labelled protein from bacteria grown in M9 minimal medium with 15NH4Cl; not shown: His6 (-SSHHHHHH), C-terminal, kept
T1 sequence (looked up): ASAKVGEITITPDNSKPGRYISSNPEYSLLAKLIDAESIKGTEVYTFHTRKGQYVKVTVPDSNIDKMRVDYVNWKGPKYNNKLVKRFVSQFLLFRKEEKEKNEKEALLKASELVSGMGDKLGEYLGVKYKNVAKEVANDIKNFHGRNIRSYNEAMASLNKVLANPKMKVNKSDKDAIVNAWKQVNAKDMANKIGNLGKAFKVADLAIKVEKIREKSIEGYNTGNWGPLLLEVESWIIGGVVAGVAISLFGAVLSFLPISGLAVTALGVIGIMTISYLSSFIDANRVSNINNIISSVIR
Assay: NMR titration; free unlabelled ColN-T added to 15N-labelled ColN-RP; 15N-1H HSQC chemical shift changes; spectra at 15°C
Conditions: both partners purified

B1: ColN_(1–90) (ColN-T), isolated translocation domain of colicin N (domain or fragment)
chain: MGSNGADNAHNNAFGGGKNPGIGNTSGAGSNGSASSNRGNSNGWSWSNKPHKNDGFHSDGSYHITFHGDNNSKPKPGGNSGNRGNNGDGA
notes: colicin N (ColN), residues 1-90, the intrinsically disordered translocation (T-) domain; the whole toxin has 387 residues; 98-residue construct: residues 1-90 followed directly by Ser2His6; Used unlabelled in the NMR mixing experiment; also called T-domain; ColN-T(1-90)-SSHHHHHH; source: purified as previously described (20, 26), dialysed into 50 mM sodium phosphate, pH 7.6, 300 mM NaCl; not …
- binding result: binds
